T1: Biotin-BCMA-Fc (human, UniProt Q02223 1-54, labelled with NHS-biotin, sites not stated)
T1 construct: also called Biotin-BCMA-Fc protein; labeled BCMA-Fc recombinant protein; not shown: Fc part
T1 sequence (looked up): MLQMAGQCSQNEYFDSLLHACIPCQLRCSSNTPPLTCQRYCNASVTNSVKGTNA

T2: BCMA-Fc recombinant protein (human, UniProt Q02223 1-54)
T2 construct: also called human BCMA protein; BCMA protein; not shown: Fc part
T2 sequence (looked up): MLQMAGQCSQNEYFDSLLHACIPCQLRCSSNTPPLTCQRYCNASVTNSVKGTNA


Legend:
Biotin-BCMA-Fc = biological target: T1, Biotin-BCMA-Fc; assay: flow cytometry of the induced yeast single clone displaying the VHH, Biotin-BCMA-Fc and PE-streptavidin
Experimental: After two rounds of magnetic sorting were repeated, a part of the yeast was cultured and subjected to induced expression and flow cytometry assays. Another part was directly applied onto a PAD plate, and single clones were then picked and cultured, and were incubated simultaneously with Biotin-Fc and Biotin-BCMA-Fc 24 h after induced expression, with PE-Streptavidin as a secondary antibody; after incubation, flow cytometry assays were performed, and the results are shown in FIG. 3, where 14 clones are shown to bind to Biotin-BCMA-Fc.

[1] = biological target: T2, BCMA-Fc recombinant protein; assay: SPR, Biacore 8K, CM5 chip; antibody captured by anti-human IgG (Fc), human BCMA protein as analyte (paragraph 147 describes the reverse format)
Experimental: The mouse anti-human IgG (Fc) antibody was diluted with the immobilization reagent (sodium acetate, pH 5.0): 950 μL of the immobilization reagent was added to 50 μL of the mouse anti-human IgG (Fc) antibody. The dilution was used for immobilization in eight channels. First, the surface of the CM5 chip was activated for 360 s with EDC and NHS at a flow rate of 10 μL/min. Then, the mouse anti-human IgG (Fc) antibody was injected into the channels (channels 1-8, Fc1,2) at a flow rate of 10 μL/min for about 360 s, with the level of immobilization at about 7000 to 14,000 RU. Finally, the chip was blocked with ethanolamine at 10 μL/min for 420 s.
Human BCMA protein was diluted 2-fold with the running reagent. The diluted human BCMA protein was injected into the experimental channels and the reference channels in sequence at a flow rate of 30 μL/min, and corresponding periods of association and dissociation were allowed. The association and dissociation steps were all performed in the running reagent. After each concentration analysis, the chip needed to be regenerated with magnesium chloride at a flow rate of 20 μL/min for 30 s to wash away the ligand and undissociated analyte. For the next concentration analysis, the experimental channels needed to recapture the same amount of ligand.
A KD value was calculated for each sample using Biacore 8K analysis software Biacore Insight Evaluation Software. The reference channels (Fc1) were used for background subtraction.

Binder | percent of cells in gate R3 (Biotin-BCMA-Fc) | Kd [1] | koff [1] | kon [1] | binding result (Biotin-BCMA-Fc)
C6 (Fc fusion, also called single-domain antibody C6) VHH-Fc fusion chain: QVQLVESGGGLVETGSSLRLSCKSSGHSFSDYSLAWFRQAPGKEREFVAAITWSDVPRDDAVTYYRVDVKGRFTISRDNAKNTVYLQMNSLKPEDTAVYYCAVDASLVMTLTPRYWGQGTQVTVSS | 93.3% | – | – | – | –
humanized single-domain antibody huD1 (Fc fusion, Humanized on DP-47 frameworks, original FR2 kept; not shown: fusion partner) QVQLVESGGGLVQPGGSLRLSCAASGRTSTTSVMGWFRQAPGKERRFVAAITRTDDRQNDGITYYADSVKGRFTISRDNSKNTLYLQMNSLRAEDTAVYYCAAHTSLVFTPDPRYWGQGTLVTVSS | – | 1.9 nM | 0.0141 s⁻¹ | 7.41e+06 M⁻¹ s⁻¹ | –
humanized single-domain antibody hu4811 (Fc fusion, Humanized on DP-47 frameworks, original FR2 kept; Fusion partner inferred; not shown: fusion partner) QVQLVESGGGLVQPGGSLRLSCAASGHTPSNYAMGWFRQTPGKEREFVAAITWSAVTRDDAIPYYADSVKGRFTISRDNSKNTLYLQMNSLRAEDTAVYYCAVDASLVMTPTPRYWGQGTLVTVSS | – | 9.71 nM | 0.0698 s⁻¹ | 7.19e+06 M⁻¹ s⁻¹ | –
C2 (Fc fusion, also called single-domain antibody C2) VHH-Fc fusion chain: QVQLVESGGGLVQAGGSLRLSCVASGLTFSNYAMGWFRQGPGKDRDFVAAITRSDERQNDGVTYYRVSVKGRFTISRDNANDTVYLQMNSLKPEDTAIYYCAADPSLVFSPTLRYWGQGTLVTVSS | 95.3% | – | – | – | –
D10 (Fc fusion, also called single-domain antibody D10) VHH-Fc fusion chain: QVQLVESGGGLVQPGGSLRLSCAASGFSLNNYVIGWFRQAPGKDRDFVAAITRSDERQNDGVTYYRVSVKGRFTISRDNANDTVYLQMNSLKPEDTAIYYCAADPSLVFSPTPRYWGQGTLVTVSS | 99.8% | – | – | – | –

The next lines start with the values.

percent of cells in gate R3 (Biotin-BCMA-Fc) | Kd [1] | koff [1] | kon [1] | binding result (Biotin-BCMA-Fc) | Binder
– | 0.243 nM | 0.00212 s⁻¹ | 8.73e+06 M⁻¹ s⁻¹ | binds | single-domain antibody D1 (Fc fusion, not shown: human IgG1 Fc, ligated in series to the VHH (vector Lenti-hIgG1-Fc2)) QVQLVESGGGLVQAGGSLRLSCVASGRTSTTSVMGWFRQAPGKERRFVAAITRTDDRQNDGITYYGESVKGRFTISRDNDKNTVYLQMNSLKPEDTAVYYCAAHTSLVFTPDPRYWGQGTPVTVPS
– | 9.25 nM | 0.0579 s⁻¹ | 6.26e+06 M⁻¹ s⁻¹ | – | humanized single-domain antibody huD1FGLF (Fc fusion, FR1, FR3 and FR4 replaced and FR2 mutated; Fusion partner inferred; also called huDIFGLF; not shown: fusion partner) QVQLVESGGGLVQPGGSLRLSCAASGRTSTTSVMGWFRQAPGKGLEFVAAITRTDDRQNDGITYYADSVKGRFTISRDNSKNTLYLQMNSLRAEDTAVYYCAAHTSLVFTPDPRYWGQGTLVTVSS
– | 10.2 nM | 0.126 s⁻¹ | 1.24e+07 M⁻¹ s⁻¹ | – | humanized single-domain antibody hu4811FGLF (Fc fusion, FR1, FR3 and FR4 replaced and T45A, E49G, R50L in FR2; Fusion partner inferred; not shown: fusion partner) QVQLVESGGGLVQPGGSLRLSCAASGHTPSNYAMGWFRQAPGKGLEFVAAITWSAVTRDDAIPYYADSVKGRFTISRDNSKNTLYLQMNSLRAEDTAVYYCAVDASLVMTPTPRYWGQGTLVTVSS
98.4% | 0.0379 nM | 0.0013 s⁻¹ | 3.42e+07 M⁻¹ s⁻¹ | – | single-domain antibody 48-11 (Fc fusion, Supernatant was used in flow cytometry, Protein A purified material in Biacore; not shown: human IgG1 Fc, ligated in series to the VHH (vector Lenti-hIgG1-Fc2)) QVQLVESGGGLVQAGGSLRLSCAASGHTPSNYAMGWFRQTPGKEREFVAAITWSAVTRDDAIPYYRTSVKGRFTISRDNAKNTVYLQMNSLKPEDTAVYYCAVDASLVMTPTPRYWGQGTQVTVSS
